Results: patent publication US10189900B2, “Method for screening for autophagy activator or inhibitor” (KOREA FOOD RESEARCH INSTITUTE, priority 2014, dated 2019)
Where a chain is given by its changes, count along the chain named. Names and notes keep the numbering of the source.

B1: HA-tagged ULK1 wild type (protein)
chain: MEPGRGGTETVGKFEFSRKDLIGHGAFAVVFKGRHREKHDLEVAVKCINKKNLAKSQTLLGKEIKILKELKHENIVALYDFQEMANSVYLVMEYCNGGDLADYLHAMRTLSEDTIRLFLQQIAGAMRLLHSKGIIHRDLKPQNILLSNPAGRRANPNSIRVKIADFGFARYLQSNMMAATLCGSPMYMAPEVIMSQHYDGKADLWSIGTIVYQCLTGKAPFQASSPQDLRLFYEKNKTLVPTIPRETSAPLRQLLLALLQRNHKDRMDFDEFFHHPFLDASPSVRKSPPVPVPSYPSSGSGSSSSSSSTSHLASPPSLGEMQQLQKTLASPADTAGFLHSSRDSGGSKDSSCDTDDFVMVPAQFPGDLVAEAPSAKPPPDSLMCSGSSLVASAGLESHGRTPSPSPPCSSSPSPSGRAGPFSSSRCGASVPIPVPTQVQNYQRIERNLQSPTQFQTPRSSAIRRSGSTSPLGFARASPSPPAHAEHGGVLARKMSLGGGRPYTPSPQVGTIPERPGWSGTPSPQGAEMRGGRSPRPGSSAPEHSPRTSGLGCRLHSAPNLSDLHVVRPKLPKPPTDPLGAVFSPPQASPPQPSHGLQSCRNLRGSPKLPDFLQRNPLPPILGSPTKAVPSFDFPKTPSSQNLLALLARQGVVMTPPRNRTLPDLSEVGPFHGQPLGPGLRPGEDPKGPFGRSFSTSRLTDLLLKAAFGTQAPDPGSTESLQEKPMEIAPSAGFGGSLHPGARAGGTSSPSPVVFTVGSPPSGSTPPQGPRTRMFSAGPTGSASSSARHLVPGPCSEAPAPELPAPGHGCSFADPITANLEGAVTFEAPDLPEETLMEQEHTEILRGLRFTLLFVQHVLEIAALKGSASEAAGGPEYQLQESVVADQISLLSREWGFAEQLVLYLKVAELLSSGLQSAIDQIRAGKLCLSSTVKQVVRRLNELYKASVVSCQGLSLRLQRFFLDKQRLLDRIHSITAERLIFSHAVQMVQSAALDEMFQHREGCVPRYHKALLLLEGLQHMLSDQADIENVTKCKLCIERRLSALLTGICA
B2: HA-tagged ULK1 M92A KD (kinase dead) mutant (protein)
chain: B1 chain with M92A
B3: myc-tagged ULK1 KD (M92) mutant (protein)
chain: B1 chain with M92A
B4: myc-tagged ULK1 wild type (protein)
chain: B1 chain

Legend:
[1] = tested on: Ser30 of Beclin 1; test: Beclin 1 Ser30 phosphorylation after compound treatment (immunoprecipitation of endogenous Beclin 1, phospho-Ser30 antibody); type: cell-based; conditions: HEK293T cells treated for 0, 15, 30, 60 and 120 min; endogenous Beclin 1 isolated by immunoprecipitation; rabbit phospho-Ser30 antibody
Description: For co-immunoprecipitation, cell extracts were prepared in a buffer containing 40 mM HEPES, pH 7.4, 120 mM NaCl, 1 mM EDTA, 50 mM NaF, 1.5 mM Na3VO4, 10 mM Mb-glycerophosphate, 1% triton X-100, and protease inhibitor (Roche). Immunoprecipitated proteins were washed four times with a lysis buffer, and loaded onto 8% Tris-glycine gels. The resultant proteins were transferred onto polyvinylidene difluoride (PVDF) membranes (Bio-Rad, USA), and detected with western blotting detection reagents (Perkin Elmer, USA).
HEK293T cells were treated with rapamycin for predetermined periods of time (0, 15, 30, 60, and 120 min). Endogenous Beclin 1 was isolated by immunoprecipitation. The phosphorylation of Ser30 was analyzed using rabbit antibodies developed in the present invention. It was verified that Ser30 of Beclin 1 was phosphorylated by rapamycin (FIG. 5). Rapamycin increases the activity of ULK1.
HEK293T cells were treated with torin for predetermined periods of time (0, 15, 30, 60, and 120 min). Endogenous Beclin 1 was isolated by immunoprecipitation. The phosphorylation of Ser30 was analyzed using rabbit antibodies developed in the present invention. It was verified that Ser30 of Beclin 1 was phosphorylated by torin (FIG. 6).

[2] = target: myc-tagged Beclin 1, Q14457
[3] = target: Recombinant Beclin 1 isolated from E. coli, Q14457
Sequence of Recombinant Beclin 1 isolated from E. coli, Q14457 (Q14457 whole entry, looked up): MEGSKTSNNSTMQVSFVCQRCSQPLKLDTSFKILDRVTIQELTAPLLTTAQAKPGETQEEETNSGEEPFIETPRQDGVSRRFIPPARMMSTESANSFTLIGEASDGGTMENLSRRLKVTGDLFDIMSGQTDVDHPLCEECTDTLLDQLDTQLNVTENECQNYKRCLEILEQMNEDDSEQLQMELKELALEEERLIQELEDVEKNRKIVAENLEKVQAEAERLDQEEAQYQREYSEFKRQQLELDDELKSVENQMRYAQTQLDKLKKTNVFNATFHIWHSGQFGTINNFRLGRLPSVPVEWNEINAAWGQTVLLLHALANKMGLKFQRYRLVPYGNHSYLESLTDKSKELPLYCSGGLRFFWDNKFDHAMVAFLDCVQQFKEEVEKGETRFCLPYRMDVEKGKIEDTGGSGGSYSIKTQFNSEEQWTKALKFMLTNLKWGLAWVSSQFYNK

Sequence of myc-tagged Beclin 1, Q14457 (Q14457 whole entry, looked up): as above

Molecule | band shift on SDS-PAGE (western blot) [2] | incorporation of 32P into Beclin 1 (in vitro kinase reaction, autoradiogram) [3] | other results
torin |  |  | phosphorylation of Ser30 of Beclin 1 [1]: phosphorylated
B1 | Beclin 1 co-expressed together with ULK1 showed band shift |  | 
B2 | Beclin 1 co-expressed together with ULK1 M92A KD showed no band shift |  | 
B3 |  | KD mutant-added Beclin 1 was not phosphorylated | 
B4 |  | The ULK1 wild type phosphorylates Beclin 1 | 
